The source of these data is US20250215109A1.

The assay concerns the target HER2 on human tumor cells (human) (UniProt P04626). The assay can be described thus: Her2 receptor occupancy on SK-BR-3 cells, FACS, competitor biotin-labeled parental anti-HER2 antibody.

In the case of Magrolimab (antibody), the Max RO % was 0%.
